In patent US20220332804A1 (CSL INNOVATION, published 2022):

Columns and labels:
Assay in all cases: SPR, KD relative to WT C2;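 also: biacore SPR at 37 °C, anti-C2 mAbs captured via immobilised goat anti-human IgG, C2 alanine or serine surface mutants as analytes, 1:1 model fitted, double-referenced sensograms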
human C2 A709S = target: T1, human C2 A709S (human, UniProt P06681 21-752)
T1 sequence: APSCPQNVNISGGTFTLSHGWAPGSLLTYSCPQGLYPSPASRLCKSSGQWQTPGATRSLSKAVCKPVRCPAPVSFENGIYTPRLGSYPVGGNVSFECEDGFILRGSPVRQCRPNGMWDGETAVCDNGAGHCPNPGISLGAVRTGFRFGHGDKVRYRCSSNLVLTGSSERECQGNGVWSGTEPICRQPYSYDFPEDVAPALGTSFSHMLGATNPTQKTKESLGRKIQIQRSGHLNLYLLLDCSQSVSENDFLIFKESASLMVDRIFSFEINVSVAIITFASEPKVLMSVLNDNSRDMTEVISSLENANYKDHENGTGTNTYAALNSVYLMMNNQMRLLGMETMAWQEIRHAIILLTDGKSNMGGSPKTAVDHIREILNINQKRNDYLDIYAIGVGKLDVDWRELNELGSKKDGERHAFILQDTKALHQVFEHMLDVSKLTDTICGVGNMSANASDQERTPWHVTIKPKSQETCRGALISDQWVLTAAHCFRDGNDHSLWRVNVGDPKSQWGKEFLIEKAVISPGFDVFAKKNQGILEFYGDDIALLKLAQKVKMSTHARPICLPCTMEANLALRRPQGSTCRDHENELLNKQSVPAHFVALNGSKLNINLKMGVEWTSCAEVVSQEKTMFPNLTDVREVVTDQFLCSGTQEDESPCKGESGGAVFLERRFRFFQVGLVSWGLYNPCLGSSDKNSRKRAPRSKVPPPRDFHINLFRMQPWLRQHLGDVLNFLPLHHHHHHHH

human C2 R719A = target: T2, human C2 R719A (human, UniProt P06681 21-752)
T2 sequence: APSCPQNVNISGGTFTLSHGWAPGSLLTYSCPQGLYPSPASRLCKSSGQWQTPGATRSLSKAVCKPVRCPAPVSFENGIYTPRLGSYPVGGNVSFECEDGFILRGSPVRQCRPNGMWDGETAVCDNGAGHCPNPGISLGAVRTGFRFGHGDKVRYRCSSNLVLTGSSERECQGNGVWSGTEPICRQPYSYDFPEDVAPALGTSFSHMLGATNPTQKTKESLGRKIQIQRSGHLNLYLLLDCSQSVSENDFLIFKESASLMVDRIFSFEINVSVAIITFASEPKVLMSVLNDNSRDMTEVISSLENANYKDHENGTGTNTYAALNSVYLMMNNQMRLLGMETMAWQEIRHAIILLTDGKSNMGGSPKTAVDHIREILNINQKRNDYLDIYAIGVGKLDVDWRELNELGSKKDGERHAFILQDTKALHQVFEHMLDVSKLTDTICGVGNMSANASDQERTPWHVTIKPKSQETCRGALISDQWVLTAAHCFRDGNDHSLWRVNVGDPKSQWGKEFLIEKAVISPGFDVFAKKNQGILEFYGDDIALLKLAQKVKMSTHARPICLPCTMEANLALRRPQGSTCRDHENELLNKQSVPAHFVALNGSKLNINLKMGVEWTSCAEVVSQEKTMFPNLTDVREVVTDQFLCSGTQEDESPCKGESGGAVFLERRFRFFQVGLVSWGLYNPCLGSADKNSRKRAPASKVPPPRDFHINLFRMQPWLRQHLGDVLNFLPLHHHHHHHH

human C2 P724A = target: T3, human C2 P724A (human, UniProt P06681 21-752)
T3 sequence: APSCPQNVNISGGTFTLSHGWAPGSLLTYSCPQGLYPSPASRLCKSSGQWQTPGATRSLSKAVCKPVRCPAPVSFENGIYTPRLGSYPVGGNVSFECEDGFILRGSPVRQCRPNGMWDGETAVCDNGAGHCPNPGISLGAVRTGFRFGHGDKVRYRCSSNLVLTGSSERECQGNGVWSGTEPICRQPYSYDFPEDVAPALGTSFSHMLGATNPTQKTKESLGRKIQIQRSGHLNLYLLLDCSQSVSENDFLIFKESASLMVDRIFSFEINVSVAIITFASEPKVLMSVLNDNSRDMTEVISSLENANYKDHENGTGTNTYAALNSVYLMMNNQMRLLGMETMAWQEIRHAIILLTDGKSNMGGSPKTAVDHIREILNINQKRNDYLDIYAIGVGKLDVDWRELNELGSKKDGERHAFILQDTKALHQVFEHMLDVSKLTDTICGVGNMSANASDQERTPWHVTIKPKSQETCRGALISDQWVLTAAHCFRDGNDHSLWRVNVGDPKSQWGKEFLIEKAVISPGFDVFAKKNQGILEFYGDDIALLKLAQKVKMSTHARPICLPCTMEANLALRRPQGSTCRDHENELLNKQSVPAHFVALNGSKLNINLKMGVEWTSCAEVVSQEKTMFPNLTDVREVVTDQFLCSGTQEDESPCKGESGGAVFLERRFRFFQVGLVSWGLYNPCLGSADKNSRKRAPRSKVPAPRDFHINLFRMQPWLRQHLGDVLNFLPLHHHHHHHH

human C2 A470S = target: T4, human C2 A470S (human, UniProt P06681 21-752)
T4 sequence: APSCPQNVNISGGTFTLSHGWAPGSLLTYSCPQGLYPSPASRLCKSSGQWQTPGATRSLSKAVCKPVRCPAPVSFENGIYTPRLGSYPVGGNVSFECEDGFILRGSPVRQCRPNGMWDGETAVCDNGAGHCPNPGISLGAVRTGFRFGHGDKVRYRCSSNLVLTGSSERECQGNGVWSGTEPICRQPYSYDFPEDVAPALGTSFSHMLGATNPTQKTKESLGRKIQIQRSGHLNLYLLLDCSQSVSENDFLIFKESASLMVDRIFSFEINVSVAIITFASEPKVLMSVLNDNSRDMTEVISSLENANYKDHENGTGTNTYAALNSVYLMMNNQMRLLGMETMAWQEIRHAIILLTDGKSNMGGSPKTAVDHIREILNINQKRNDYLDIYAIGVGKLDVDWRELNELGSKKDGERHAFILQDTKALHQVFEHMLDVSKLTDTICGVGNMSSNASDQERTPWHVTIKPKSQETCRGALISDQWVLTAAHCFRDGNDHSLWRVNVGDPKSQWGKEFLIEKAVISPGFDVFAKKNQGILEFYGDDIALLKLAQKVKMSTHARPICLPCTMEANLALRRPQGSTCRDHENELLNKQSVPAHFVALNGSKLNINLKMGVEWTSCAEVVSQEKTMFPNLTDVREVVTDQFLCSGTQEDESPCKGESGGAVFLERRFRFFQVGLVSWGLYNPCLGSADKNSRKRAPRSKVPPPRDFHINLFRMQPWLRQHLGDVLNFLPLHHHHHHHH

B1: RF16-226 (antibody, human IgG4 S228P, lambda)
heavy: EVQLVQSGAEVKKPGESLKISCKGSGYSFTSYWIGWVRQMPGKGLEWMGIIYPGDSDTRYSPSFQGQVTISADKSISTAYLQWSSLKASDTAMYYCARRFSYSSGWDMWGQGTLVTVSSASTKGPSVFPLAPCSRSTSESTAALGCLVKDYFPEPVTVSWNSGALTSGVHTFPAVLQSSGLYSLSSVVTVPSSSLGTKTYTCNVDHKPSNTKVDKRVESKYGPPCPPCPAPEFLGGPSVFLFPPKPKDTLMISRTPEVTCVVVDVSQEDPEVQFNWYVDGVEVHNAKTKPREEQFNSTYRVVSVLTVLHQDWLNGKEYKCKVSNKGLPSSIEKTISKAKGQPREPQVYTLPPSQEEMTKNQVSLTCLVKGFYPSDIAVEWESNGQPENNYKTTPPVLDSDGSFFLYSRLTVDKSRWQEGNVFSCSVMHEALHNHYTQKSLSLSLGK
light: SYELTQPPSVSVSPGQTARITCSGDALTSKYVAWYQQKSGLAPLLVIYEDTRRPSGIPAKFSGSSSGSVATLTISGAHGDDEADYYCYSTDASGHQRVFGGGTKLTVLSQPKAAPSVTLFPPSSEELQANKATLVCLISDFYPGAVTVAWKADGSPVKAGVETTKPSKQSNNKYAASSYLSLTPEQWKSHRSYSCQVTHEGSTVEKTVAPTECS
notes: pH-dependent anti-C2 antibody from a phage display library; also called WT
- Fold diff (human C2 A709S): 13 fold
- Fold diff (human C2 R719A): 1 fold
- Fold diff (human C2 P724A): 40 fold
- Fold diff (human C2 A470S): 1 fold
